{
  "source": "paper PMC5141469",
  "about": "(Scientific Reports, 2016)",
  "target": "T1, YajC (E. coli, UniProt P0ADZ7 1-110)",
  "T1 construct": "YajC of E. coli; also called subunit of SecDF-YajC; subunit of the holo-translocon (HTL)",
  "T1 sequence (looked up)": "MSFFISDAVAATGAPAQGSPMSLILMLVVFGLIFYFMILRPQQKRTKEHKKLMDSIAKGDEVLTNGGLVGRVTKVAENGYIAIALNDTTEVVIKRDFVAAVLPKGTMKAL",
  "assay": "SEC + AUC; co-purified detergent-solubilised (DDM) HTL; ultracentrifugation 16 h at 35,000 rpm, 10 °C, absorbance at 280 nm and interference",
  "conditions": "both partners purified",
  "data": [
    {"binder": "SecD (natural protein, E. coli, UniProt P0AG90 1-615, looked up, SecD of E. coli; also called subunit of SecDF; subunit of the holo-translocon (HTL); not shown: His6, C-terminal, kept) MLNRYPLWKYVMLIVVIVIGLLYALPNLFGEDPAVQITGARGVAASEQTLIQVQKTLQEEKITAKSVALEEGAILARFDSTDTQLRAREALMGVMGDKYVVALNLAPATPRWLAAIHAEPMKLGLDLRGGVHFLMEVDMDTALGKLQEQNIDSLRSDLREKGIPYTTVRKENNYGLSITFRDAKARDEAIAYLSKRHPDLVISSQGSNQLRAVMSDARLSEAREYAVQQNINILRNRVNQLGVAEPVVQRQGADRIVVELPGIQDTARAKEILGATATLEFRLVNTNVDQAAAASGRVPGDSEVKQTREGQPVVLYKRVILTGDHITDSTSSQDEYNQPQVNISLDSAGGNIMSNFTKDNIGKPMATLFVEYKDSGKKDANGRAVLVKQEEVINIANIQSRLGNSFRITGINNPNEARQLSLLLRAGALIAPIQIVEERTIGPTLGMQNIEQGLEACLAGLLVSILFMIIFYKKFGLIATSALIANLILIVGIMSLLPGATLSMPGIAGIVLTLAVAVDANVLINERIKEELSNGRTVQQAIDEGYRGAFSSIFDANITTLIKVIILYAVGTGAIKGFAITTGIGVATSMFTAIVGTRAIVNLLYGGKRVKKLSI", "values": [
      {"measurement": "stoichiometry N", "value": 1}
    ]},
    {"binder": "SecE (natural protein, E. coli, UniProt P0AG96 1-127, looked up, SecE, subunit of the E. coli SecYEG protein-conducting channel; also called subunit of SecYEG; subunit of the holo-translocon (HTL); not shown: His6, N-terminal, kept) MSANTEAQGSGRGLEAMKWVVVVALLLVAIVGNYLYRDIMLPLRALAVVILIAAAGGVALLTTKGKATVAFAREARTEVRKVIWPTRQETLHTTLIVAAVTAVMSLILWGLDGILVRLVSFITGLRF", "values": [
      {"measurement": "stoichiometry N", "value": 1}
    ]},
    {"binder": "YidC (natural protein, E. coli, UniProt P25714 1-548, looked up, YidC of E. coli; also called membrane 'insertase' YidC; subunit of the holo-translocon (HTL); not shown: His6, C-terminal, kept) MDSQRNLLVIALLFVSFMIWQAWEQDKNPQPQAQQTTQTTTTAAGSAADQGVPASGQGKLISVKTDVLDLTINTRGGDVEQALLPAYPKELNSTQPFQLLETSPQFIYQAQSGLTGRDGPDNPANGPRPLYNVEKDAYVLAEGQNELQVPMTYTDAAGNTFTKTFVLKRGDYAVNVNYNVQNAGEKPLEISSFGQLKQSITLPPHLDTGSSNFALHTFRGAAYSTPDEKYEKYKFDTIADNENLNISSKGGWVAMLQQYFATAWIPHNDGTNNFYTANLGNGIAAIGYKSQPVLVQPGQTGAMNSTLWVGPEIQDKMAAVAPHLDLTVDYGWLWFISQPLFKLLKWIHSFVGNWGFSIIIITFIVRGIMYPLTKAQYTSMAKMRMLQPKIQAMRERLGDDKQRISQEMMALYKAEKVNPLGGCFPLLIQMPIFLALYYMLMGSVELRQAPFALWIHDLSAQDPYYILPILMGVTMFFIQKMSPTTVTDPMQQKIMTFMPVIFTVFFLWFPSGLVLYYIVSNLVTIIQQQLIYRGLEKRGLHSREKKKS", "values": [
      {"measurement": "stoichiometry N", "value": 1}
    ]},
    {"binder": "SecF (natural protein, E. coli, UniProt P0AG93 1-323, looked up, SecF of E. coli; also called subunit of SecDF; subunit of the holo-translocon (HTL)) MAQEYTVEQLNHGRKVYDFMRWDYWAFGISGLLLIAAIVIMGVRGFNWGLDFTGGTVIEITLEKPAEIDVMRDALQKAGFEEPMLQNFGSSHDIMVRMPPAEGETGGQVLGSQVLKVINESTNQNAAVKRIEFVGPSVGADLAQTGAMALMAALLSILVYVGFRFEWRLAAGVVIALAHDVIITLGILSLFHIEIDLTIVASLMSVIGYSLNDSIVVSDRIRENFRKIRRGTPYEIFNVSLTQTLHRTLITSGTTLMVILMLYLFGGPVLEGFSLTMLIGVSIGTASSIYVASALALKLGMKREHMLQQKVEKEGADQPSILP", "values": [
      {"measurement": "stoichiometry N", "value": 1}
    ]},
    {"binder": "SecY (natural protein, E. coli, UniProt P0AGA2 1-443, looked up, SecY, subunit of the E. coli SecYEG protein-conducting channel; also called subunit of SecYEG; subunit of the holo-translocon (HTL)) MAKQPGLDFQSAKGGLGELKRRLLFVIGALIVFRIGSFIPIPGIDAAVLAKLLEQQRGTIIEMFNMFSGGALSRASIFALGIMPYISASIIIQLLTVVHPTLAEIKKEGESGRRKISQYTRYGTLVLAIFQSIGIATGLPNMPGMQGLVINPGFAFYFTAVVSLVTGTMFLMWLGEQITERGIGNGISIIIFAGIVAGLPPAIAHTIEQARQGDLHFLVLLLVAVLVFAVTFFVVFVERGQRRIVVNYAKRQQGRRVYAAQSTHLPLKVNMAGVIPAIFASSIILFPATIASWFGGGTGWNWLTTISLYLQPGQPLYVLLYASAIIFFCFFYTALVFNPRETADNLKKSGAFVPGIRPGEQTAKYIDKVMTRLTLVGALYITFICLIPEFMRDAMKVPFYFGGTSLLIVVVVIMDFMAQVQTLMMSSQYESALKKANLKGYGR", "values": [
      {"measurement": "stoichiometry N", "value": 1}
    ]},
    {"binder": "SecG (natural protein, E. coli, UniProt P0AG99 1-110, looked up, SecG, subunit of the E. coli SecYEG protein-conducting channel; also called subunit of SecYEG; subunit of the holo-translocon (HTL)) MYEALLVVFLIVAIGLVGLIMLQQGKGADMGASFGAGASATLFGSSGSGNFMTRMTALLATLFFIISLVLGNINSNKTNKGSEWENLSAPAKTEQTQPAAPAKPTSDIPN", "values": [
      {"measurement": "stoichiometry N", "value": 1}
    ]}
  ]
}
